Data set [1] can be described thus: pNCA enzyme activity assay, substrate 10-pNCA. In kind it is biochemical. As for the experimental part:
(§1) For the pNCA activity assay use was made of 8 μl of a 10 mM pNCA solution in DMSO in a disposable cell in an end volume of 1 ml. After 850 μl of Tris/HCl buffer (0.1 M, pH 8.2) and 0.1 to 0.4 nmol P450 had been added to the pNCA/DMSO solution in question, the samples were preincubated for 5 minutes before the reaction was started by adding 50 μl of an aqueous solution of […]. To determine Kcat and Km, a concentration series was established for the various pNCA substrates (regarding details of the detection method, see (12)).
(§2) A 96-well plate (Greiner, Frickenhausen, Germany) was used for carrying out the pNCA test in a microtiter plate. In a total reaction volume of 250 μl in Tris/HCl buffer (0.1 M, pH 8.2), the reaction batch contained either 60 nmol 8-pNCA, 15 nmol 10-pNCA, 15 nmol 12-pNCA or 15 nmol 15-pNCA, in each case dissolved in 2.5 μl of DMSO. After the samples had been preincubated for 5 minutes with 40 μl of P450 BM-3 samples, the reaction was started by injecting, into each well, 30 μl of a 1 mM NADPH solution. Immediately after the NADPH solution had been added, the plates were measured in a plate reader at 405 nm.

Data set [2] can be described thus: pNCA enzyme activity assay, substrate 12-pNCA. In kind it is biochemical. As for the experimental part: as §1, §2
For data set [3] the following is noted: from reference (12); cited from earlier work.
The conditions of data set [4]: from reference (1); cited from earlier work.
The nature of data set [5]: Hydroxylation of lauric acid with P450 BM-3 mutants, GC analysis of products. In kind it is biochemical. As for the experimental part: The following batch was chosen to hydroxylate the fatty acids in the presence of P450 BM-3 or its mutants:
Prior to the reaction, the enzyme lyophilisate was dissolved in 1 ml of reaction buffer and first incubated for 30 minutes at 36° C. Like the addition of 2% v/v acetone, the incubation leads to an increase in activity of 60 and 75%, respectively.
After 5 minutes' incubation, 500 μl of the previously prepared NADPH solution (12.5 mg/ml) were added. The course of the reaction is monitored by absorption measurements at 340 nm, and the consumption of NADPH can be observed. Theoretically 4 ml of NADPH solution would be required for a stoichiometric conversion, however, an unduly high NADPH concentration in the reaction solution results in inactivation of the enzyme, which is why the cofactor is added in 500 μl steps.
After the reaction had ended, the solution was acidified with 5M hydrochloric acid to a pH of 2. The fatty acids or hydroxylated fatty acids precipitate during this and result in a noticeable cloudiness of the solution. Thereafter, the mixture was extracted twice with in each case 10 ml of dichloromethane and dried over sodium sulfate. After filtration through a folded filter, the dichloromethane was removed on a rotary evaporator or by evaporation with nitrogen. The white solid which remained was taken up in 2 ml of dichloromethane and used in the GC analysis.
A Fisons gas chromatograph (Fisons Instruments Mega Series, Mainz, Germany) equipped with FID was used for the analysis (Optima 5-column, internal diameter 25 m×0.25 mm, Macherey & Nagel, Düren, Germany).
For analysis, starting materials and products were silylated with MSHFBA. During this, all hydroxyl and acid groups are converted into the corresponding trimethylsilyl ethers and esters, respectively. Care must be taken that the sample is anhydrous since otherwise side reactions with the silylating agent result. 15 μl of MSHFBA were pipetted into 10 μl of the hydroxy-fatty-acid-containing dichloromethane solution and the mixture was incubated for 15 minutes at room temperature. After 25 μl of dichloromethane had been added, the GC analysis was carried out.
To this end, 1 μl of the silylated samples were injected into the gas chromatograph. Injector and detector temperature were 350° C. The following temperature programmes were used:
To determine the reaction yields, gas chromatograms of standards were recorded. […] These ion fluxes are not proportional to the quantitative ratio of starting material and product. […] The empirical formulae of the standards and of the products are identical, and the structure only differs with regard to the position of the hydroxyl group, which is why approximately identical detectable ion fluxes can be assumed for identical quantities.

Data set [6] in a line: pNCA enzyme activity assay, substrate 15-pNCA. Type of data set: biochemical. As for the experimental part:
as §1, §2

Data set [7] in a line: pNCA enzyme activity assay, substrate 8-pNCA. In kind it is biochemical. As for the experimental part:
as §1, §2

Consider one molecule from patent publication US7981652B2, “Modified cytochrome P450 monooxygenases” (BASF Aktiengesellschaft, priority 1999, dated 2011).

B1: WT: wild-type cytochrome P450 monooxygenase BM-3 from Bacillus megaterium, SEQ ID NO:2 (protein, listed as Bacillus megaterium)
chain: TIKEMPQPKTFGELKNLPLLNTDKPVQALMKIADELGEIFKFEAPGRVTRYLSSQRLIKEACDESRFDKNLSQALKFVRDFAGDGLFTSWTHEKNWKKAHNILLPSFSQQAMKGYHAMMVDIAVQLVQKWERLNADEHIEVPEDMTRLTLDTIGLCGFNYRFNSFYRDQPHPFITSMVRALDEAMNKLQRANPDDPAYDENKRQFQEDIKVMNDLVDKIIADRKASGEQSDDLLTHMLNGKDPETGEPLDDENIRYQIITFLIAGHETTSGLLSFALYFLVKNPHVLQKAAEEAARVLVDPVPSYKQVKQLKYVGMVLNEALRLWPTAPAFSLYAKEDTVLGGEYPLEKGDELMVLIPQLHRDKTIWGDDVEEFRPERFENPSAIPQHAFKPFGNGQRACIGQQFALHEATLVLGMMLKHFDFEDHTNYELDIKETLTLKPEGFVVKAKSKKIPLGGIPSPSTEQSAKKVRKKAENAHNTPLLVLYGSNMGTAEGTARDLADIAMSKGFAPQVATLDSHAGNLPREGAVLIVTASYNGHPPDNAKQFVDWLDQASADEVKGVRYSVFGCGDKNWATTYQKVPAFIDETLAAKGAENIADRGEADASDDFEGTYEEWREHMWSDVAAYFNLDIENSEDNKSTLSLQFVDSAADMPLAKMHGAFSTNVVASKELQQPGSARSTRHLEIELPKEASYQEGDHLGVIPRNYEGIVNRVTARFGLDASQQIRLEAEEEKLAHLPLAKTVSVEELLQYVELQDPVTRTQLRAMAAKTVCPPHKVELEALLEKQAYKEQVLAKRLTMLELLEKYPACEMKFSEFIALLPSIRPRYYSISSSPRVDEKQASITVSVVSGEAWSGYGEYKGIASNYLAELQEGDTITCFISTPQSEFTLPKDPETPLIMVGPGTGVAPFRGFVQARKQLKEQGQSLGEAHLYFGCRSPHEDYLYQEELENAQSEGIITLHTAFSRMPNQPKTYVQHVMEQDGKKLIELLDQGAHFYICGDGSQMAPAVEATLMKSYADVHQVSEADARLWLQQLEEKGRYAKDVWAG
Regarding B1, the Specific activity in data set [1] stood at 339 nmol/min/nmol P450; in data set [2], 141 nmol/min/nmol P450; in data set [6], 405 nmol/min/nmol P450; in data set [7] it was 15 nmol/min/nmol P450. The “conversion of 12-pNCA (ω-hydroxylation)” value in data set [3] is 33%. The “catalytic activity for fatty acids with a chain length of less than 12 carbon atoms” value in data set [4] is “no catalytic activity”. The “positions in which the enzyme is active” value in data set [5] (lauric acid) is “only active in the positions w-1, w-2 and w-3”. Besides, the “Hydroxylation position ω-1, share of products” value in data set [5] (lauric acid (C12)) was 38%. Besides, the “Hydroxylation position ω-2, share of products” value in data set [5] (lauric acid (C12)) is recorded as 28%. In addition, the “Hydroxylation position ω-3, share of products” value in data set [5] (lauric acid (C12)) came to 34%.
